{"source": "patent US20110008375A1", "about": "“Uses of Myostatin Antagonists” (AMGEN INC., priority 2005, published 2011)", "data": [{"system": "not listed separately", "experiment": "In vivo pharmacokinetics in CD1 nu/nu mice", "set-up": "species or system mouse", "details": "peptibodies without LE sequences, 10 mg/kg and 5 mg/kg", "description": "In vivo pharmacokinetics experiments were performed using representative peptibodies without the LE sequences. 10 mg/kg and 5 mg/kg dosages were administered to CD1 nu/nu mice and the following parameters determined. Cmax (ug/mL), area under the curve (AUC) (ug-hr/mL), and half-life (hr).", "values": [{"molecule": "2×mTN8-19-22: affinity matured 2× peptibody of the TN8-19 family, human Fc (protein) GGGGGAQTFSQGHCTRWPWMCPPQGWGLEGSGSATGGSGSTASSGSGSATGTFSQGHCTRWPWMCPPQGWGLE", "half-life": "about 85.2 hours"}, {"molecule": "2x mTN8-19-7: affinity matured 2× peptibody (two peptides in tandem), TN8-19 family, human Fc (protein, Peptibody) GGGGGAQLADHGQCIRWPWMCPPEGWELEGSGSATGGSGSTASSGSGSATGLADHGQCIRWPWMCPPEGWELE", "half-life": "about 106 hours"}]}, {"molecular_target": "T1, myostatin (Homo sapiens, UniProt O14793)", "T1 construct": "To produce mature myostatin, the pooled promyostatin was enzymatically cleaved between the propeptide and mature myostatin C terminal; made in house; host or cells: E. coli K-12 strain 2596 (ATCC # 202174)", "T1 sequence (O14793 267-375)": "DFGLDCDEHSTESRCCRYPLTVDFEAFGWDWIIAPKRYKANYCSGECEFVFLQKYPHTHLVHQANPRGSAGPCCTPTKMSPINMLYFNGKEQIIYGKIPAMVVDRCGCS", "experiment": "BIAcore affinity analysis on immobilized myostatin", "format": "binding", "details": "Biacore assay; Table III", "description": "An affinity analysis of each candidate myostatin peptibody was performed on a BIAcore®3000 (Biacore, Inc., Piscataway, N.J.), apparatus using sensor chip CM5, and 0.005 percent P20 surfactant (Biacore, Inc.) as running buffer.\nDirect binding assays were used to screen and rank the peptibodies in order of their ability to bind to immobilized myostatin. Binding assays were carried by injection of two concentrations (40 and 400 nM) of each candidate myostatin-binding peptibody to the immobilized myostatin surface at a flow rate of 50 μl/min for 3 minutes. After a dissociation time of 3 minutes, the surface was regenerated. Binding curves were compared qualitatively for binding signal intensity, as well as for dissociation rates. Peptibody binding kinetic parameters including ka (association rate constant), kd (dissociation rate constant) and KD (dissociation equilibrium constant) were determined using the BIA evaluation 3.1 computer program (Biacore, Inc.). The lower the dissociation equilibrium constants (expressed in nM), the greater the affinity of the peptibody for myostatin.", "units": {"Kd": "nM"}, "values": [{"molecule": "ActRIIB/Fc: soluble receptor fusion protein actRIIB/Fc (R&D Systems), recombinant human activin receptor IIB/Fc chimera (protein, left off: a dimerising Fc or GST) SGRGEAETRECIYYNANWELERTNQSGLERCEGEQDKRLHCYASWRNSSGTIELVKKGCWLDDFNCYDRQECVATEENPQVYFCCCEGNFCNERFTHLPEAGGPEVTYEPPPTAPT", "Kd": "~7"}]}, {"system": "CD1 nu/nu mice", "experiment": "In vivo anabolic activity in CD1 nu/nu mouse model", "details": "CD1 nu/nu male mice; 1 and 3 mg/kg twice weekly, 35 days; 2× vs 1× peptibody or control", "text": "The CD1 nu/nu mouse model (Charles River Laboratories, Massachusettes) was used to determine the in vivo efficacy of the peptibodies of the present invention which included the human Fc region (huFc). This model responded to the inhibitors of the present invention with a rapid anabolic response which was associated with increased dry muscle mass and an increase in myofibrillar proteins but was not associated with accumulation in body water content.\nA group of 10 8 week old CD1 nu/nu mice were treated twice weekly or once weekly with dosages of 1 mg/kg, 3 mg/kg and 10 mg/kg (subcutaneous injection). The control group of 10 8 week old CD1 nu/nu mice received a twice weekly (subcutaneous) injection of huFc (vehicle) at 10 mg/kg. The animals were weighed every other day and lean body mass determined by NMR on day 0 and day 13. The animals are then sacrificed at day 14 and the size of the gastrocnemius muscle determined.\nIn another example, the 1×mTN8-19-32 peptibody was administered to CD1 nu/nu mice in a biweekly injection of 1 mg/kg, 3 mg/kg, 10 mg/kg, and 30 mg/kg compared with the huFc control (vehicle).\nCD1 nu/nu male mice (10 animals per group) were treated with twice weekly injections of 1 mg/kg and 3 mg/kg of 1×mTN8-19-7 and 2×mTN8-19-7 for 35 days, while the control group (10 animals) received twice weekly injections of huFc (3 mg/kg).", "values": [{"molecule": "2x mTN8-19-7: affinity matured 2× peptibody (two peptides in tandem), TN8-19 family, human Fc (protein, Peptibody) GGGGGAQLADHGQCIRWPWMCPPEGWELEGSGSATGGSGSTASSGSGSATGLADHGQCIRWPWMCPPEGWELE", "body weight gain (FIG. 5)": "greater body weight gain", "lean carcass weight at necropsy (FIG. 5)": "greater"}]}, {"system": "C57B1/6 mice", "experiment": "Gripping strength in normal C57B1/6 mice", "format": "in vivo, mouse", "details": "30 days s.c. 5 mg/kg per week, measured day 18 of recovery", "description": "The animals were allowed to recover without any further injections. Gripping strength was measured on day 18 of the recovery period. Griping strength was measured using a Columbia Instruments meter, model 1027 dsm (Columbus, Ohio).", "units": {"increase in gripping strength compared with control-treated mice": "%"}, "values": [{"molecule": "2x mTN8-19-33: affinity matured 2× peptibody of the TN8-19 family, human Fc (protein, Peptibody) GGGGGAQPESQGHCTRWPWMCPPQGWGLEGSGSATGGSGSTASSGSGSATGPESQGHCTRWPWMCPPQGWGLE", "increase in gripping strength compared with control-treated mice": 14}, {"molecule": "2x mTN8-19-7: affinity matured 2× peptibody (two peptides in tandem), TN8-19 family, human Fc (protein, Peptibody) GGGGGAQLADHGQCIRWPWMCPPEGWELEGSGSATGGSGSTASSGSGSATGLADHGQCIRWPWMCPPEGWELE", "increase in gripping strength compared with control-treated mice": 15}]}, {"molecular_target": "T1, myostatin", "experiment": "C2C12 pMARE-luc cell based myostatin activity assay", "details": "not given", "text": "(§1) A myostatin-responsive reporter cell line was generated by transfection of C2C12 myoblast cells (ATCC No: CRL-1772) with a pMARE-luc construct. The pMARE-luc construct was made by cloning twelve repeats of the CAGA sequence, representing the myostatin/activin response elements (Dennler et al. EMBO 17: 3091-3100 (1998)) into a pLuc-MCS reporter vector (Stratagene cat #219087) upstream of the TATA box. The myoblast C2C12 cells naturally express myostatin/activin receptors on its cell surface. When myostatin binds the cell receptors, the Smad pathway is activated, and phosphorylated Smad binds to the response element (Macias-Silva et al. Cell 87:1215 (1996)), resulting in the expression of the lucerase gene. Luciferase activity is then measured using a commercial luciferase reporter assay kit (cat #E4550, Promega, Madison, Wis.) according to manufacturer's protocol. A stable line of C2C12 cells that had been transfected with pMARE-luc (C2C12/pMARE clone #44) was used to measure myostatin activity according to the following procedure.\n(§2) Equal numbers of the reporter cells (C2C12/pMARE clone #44) were plated into 96 well cultures. A first round screening using two dilutions of peptibodies was performed with the myostatin concentration fixed at 4 nM. Recombinant mature myostatin was pre-incubated for 2 hours at room temperature with peptibodies at 40 nM and 400 nM respectively. The reporter cell culture was treated with the myostatin with or without peptibodies for six hours. Myostatin activity was measured by determining the luciferase activity in the treated cultures. This assay was used to initially identify peptibody hits that inhibited the myostatin signaling activity in the reporter assay. Subsequently, a nine point titration curve was generated with the myostatin concentration fixed at 4 nM. The myostatin was preincubated with each of the following nine concentrations of peptibodies: […], 0.4 nM, 4 nM, 20 nM, 40 nM, 200 nM, 400 nM, 2 uM and 4 uM for two hours before adding the mixture to the reporter cell culture. The IC50 values were for a number of exemplary peptibodies are provided in Tables III and for affinity matured peptibodies, in Table VIII.", "values": [{"molecule": "L2: peptibody: peptide MEMLDSLFELLKDMVPISKA fused to human IgG1 Fc", "inhibition of myostatin activity in cell-based assay": "inhibit myostatin activity"}]}, {"molecular_target": "T1, myostatin", "experiment": "C2C12 pMARE-luc cell based myostatin activity assay", "details": "affinity matured peptibodies; a range of values is given", "text": "as §1, §2", "units": {"IC50": "nM"}, "values": [{"molecule": "mTN8-19-11 (IYPHDQCTRWPWMCPPQPYP)", "IC50": 28.7}, {"molecule": "mTN8-19-13 (MWQQGHCTRWPWMCPPQGWG)", "IC50": 20}, {"molecule": "mTN8-19-2 (YPEQGLCTRWPWMCPPQTLA)", "IC50": "7.51 to 34.4"}, {"molecule": "mTN8-19-23 (PGAHDHCTRWPWMCPPQSRY)", "IC50": 6.58}, {"molecule": "mTN8-19-28 (SGPQGHCTRWPWMCAPQGWF)", "IC50": 4.39}, {"molecule": "mL20-4 (MQHDMSMLYGLVELLESLGHQI)", "IC50": 160}, {"molecule": "mTN8-19-9 (TQTHAQCTRWPWMCPPQWEG)", "IC50": "18.8 to 23"}, {"molecule": "mTN8-19-10 (VVTQGHCTLWPWMCPPQRWR)", "IC50": "5.25 to 7.4"}, {"molecule": "mTN8-19-4 (MITQGQCTRWPWMCPPQPSG)", "IC50": 16.7}, {"molecule": "mL15-9 (QIEMLESLLDLLRDMVPMSNAF)", "IC50": 354}, {"molecule": "mTN8-19-24 (VAEEWHCRRWPWMCPPQDWR)", "IC50": "1.67 to 2.93"}, {"molecule": "mTN8-19-27 (ADTQGHCTRWPWMCPPQHWF)", "IC50": "4.84 to 4.92"}, {"molecule": "mL15-7 (QVDSLQQVLLWLEHKLALGPQV)", "IC50": 32.8}, {"molecule": "mL20-2 (TQRDMSMLDGLLEVLDQLRQQR)", "IC50": 123}, {"molecule": "mTN8-19-29 (TLVQGHCTRWPWMCPPQRWV)", "IC50": 6.36}, {"molecule": "mTN8-19-12 (SYWQGQCTRWPWMCPPQWRG)", "IC50": 980}, {"molecule": "mTN8-19-6 (GVNQGQCTRWRWMCPPNGWE)", "IC50": 17.3}, {"molecule": "mTN8-19-16 (YQTQGLCTRWPWMCPPQSQR)", "IC50": 4.65}, {"molecule": "mL20-3 (TSRDMSLLWELLEELDRLGHQR)", "IC50": 158}, {"molecule": "mTN8-19-14 (EFTQWHCTRWPWMCPPQRSQ)", "IC50": "4.07 to 6.56"}, {"molecule": "mTN8-19-34 (IPAHGHCTRWPWMCPPQRWR)", "IC50": "5.03 to 5.07"}, {"molecule": "mTN8-19-5 (AGAQEHCTRWPWMCAPNDWI)", "IC50": "3.5 to 7.74"}, {"molecule": "2xmTN8-19-21 (protein, Peptibody) GGGGGAQSEYQGLCTRWPWMCPPQGWKLEGSGSATGGSGSTASSGSGSATGSEYQGLCTRWPWMCPPQGWKLE", "IC50": "0.828 to 1.43"}, {"molecule": "2xmTN8-19-22 (protein, Peptibody) GGGGGAQTFSQGHCTRWPWMCPPQGWGLEGSGSATGGSGSTASSGSGSATGTFSQGHCTRWPWMCPPQGWGLE", "IC50": "0.994 to 1.22"}, {"molecule": "2xmTN8-19-7 (protein, Peptibody) GGGGGAQLADHGQCIRWPWMCPPEGWELEGSGSATGGSGSTASSGSGSATGLADHGQCIRWPWMCPPEGWELE", "IC50": "0.857 to 2.65"}]}, {"molecular_target": "T1, myostatin", "experiment": "C2C12 pMARE-luc cell based myostatin activity assay", "details": "pMARE luc cell-based assay; Table III", "text": "as §1, §2", "units": {"IC50": "nM"}, "values": [{"molecule": "Linear-20: peptibody: peptide YREMSMLEGLLDVLERLQHY fused to human IgG1 Fc", "IC50": "~11"}, {"molecule": "TN12-34: peptibody: peptide AHWCEQGPWRYGNICMAY fused to human IgG1 Fc", "IC50": "~30"}]}]}
